In the experiment the target is Protein A/G. The experiment can be described thus: single-molecule TIRF microscopy, saturation curve.

For one substance, Kd results are on record in PMC7904085.

“Mouse monoclonal anti-V5 tag antibody [SV5-Pk1]” registered an equilibrium dissociation constant (Kd) of 4.6 nM.
